Experimental data published in patent publication US20190169308A1.
Blank lines part the entries; values can stand above or below the binder they belong to.

Biological target: human/mouse 5T4 chimera aa173-420 (human; mouse) (UniProt Q13641)
Experiment: flow cytometry, cells with human/mouse 5T4 chimera

human/mouse 5T4 chimera aa173-420 (human; mouse), sequence (Q13641 other isoform, or with tags, fused parts or gaps mutant limits assumed, form in doubt): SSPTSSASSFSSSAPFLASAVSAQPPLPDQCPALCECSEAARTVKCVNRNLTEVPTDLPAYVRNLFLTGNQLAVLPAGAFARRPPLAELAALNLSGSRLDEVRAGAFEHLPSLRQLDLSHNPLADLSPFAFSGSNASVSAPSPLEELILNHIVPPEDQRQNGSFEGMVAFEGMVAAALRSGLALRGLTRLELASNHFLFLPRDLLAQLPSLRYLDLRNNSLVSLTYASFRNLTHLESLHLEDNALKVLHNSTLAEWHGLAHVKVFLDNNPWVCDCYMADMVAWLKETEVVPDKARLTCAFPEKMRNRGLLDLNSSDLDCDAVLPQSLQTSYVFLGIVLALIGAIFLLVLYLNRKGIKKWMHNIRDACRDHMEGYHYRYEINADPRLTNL

normalized % positive cells: 0.3
B1: 1206/1207 (antibody, V domains shown)
VH: EVQLLESGGGLVQPGGSLRLSCAASGFTFSGSSMSWVRQAPGKGLEWVSSIYYSGSGTYYADSVKGRFTISRDNSKNTLYLQMNSLRAEDTAVYYCARYGRNVHPYNLDYWGQGTLVTVSS
VL: DIQMTQSPSSLSASVGDRVTITCRASQSISSYLNWYQQKPGKAPKLLIYAASSLQSGVPSRFSGSGSGTDFTLTISSLQPEDFATYYCQQGYYYLPTFGQGTKLEIK

normalized % positive cells: -0.01
B2: 1212/1213 (antibody, V domains shown)
VH: EVQLLESGGGLVQPGGSLRLSCAASGFTFSSYAMSWVRQAPGKGLEWVSYISSYGGYTSYADSVKGRFTISRDNSKNTLYLQMNSLRAEDTAVYYCARYHSGVLDYWGQGTLVTVSS
VL: DIQMTQSPSSLSASVGDRVTITCRASQSISSYLNWYQQKPGKAPKLLIYAASSLQSGVPSRFSGSGSGTDFTLTISSLQPEDFATYYCQQYYYHYLLTFGQGTKLEIK
